Key:
[1] = test system: dexamethasone-inducible Cdc25 gene; experiment: Induction of Cdc25 mRNA and protein (northern and western blot); type: cell-based, N. plumbaginifolia; settings: inducible cell lines; 12 h induction
Experimental: FIG. 1a is a copy of a photographic representation of a northern blot hybridisation showing the induction of Cdc25 mRNA in tobacco cells containing a dexamethasone-inducible Cdc25 gene, in the absence of exogenous cytokinin. […] Total RNA was extracted from tobacco cells either in the absence of added dexamethasone (lane 0), or after 12 h induction with […], or 0.10 μM, or 1.00 μM, or 10.00 μM dexamethasone and then loaded onto agarose gels (60 μg aliquots RNA per lane), transferred to membrane support and probed with a Cdc25-specific probe.
FIG. 1b is a copy of a photographic representation of a western blot showing the induction of p67^Cdc25 protein in tobacco cells containing a dexamethasone-inducible Cdc25 gene, in the absence of exogenous cytokinin. […] Total protein was extracted from tobacco cells either in the absence of added dexamethasone (lane 1), or after 12 h induction with 0.01 μM dexamethasone (Lane 2), or 0.10 μM dexamethasone (Lane 3), or 1.00 μM dexamethasone (Lane 4), or 10.00 µM dexamethasone (Lane 5) and then loaded onto SDS/polyacrylamide gels ([…] aliquots total soluble p67^cdc25 protein per lane), transferred to membrane support and probed with antibody specific for the Cdc25-specific probe. p67^Cdc25 was detected by western blot of 50 μg aliquots of total soluble p67^Cdc25 protein. […]

[2] = test system: tobacco cells containing a dexamethasone-inducible Cdc25 gene; settings: auxin only
[3] = test system: tobacco Cdc2 protein, designated Cdc2a
[4] = biological target: tobacco Cdc2 protein, designated Cdc2a; remark: listed apart in the source
plant Cdc2 enzyme = experiment: In vitro activation of plant Cdc2 histone kinase by GST-Cdc25; type: biochemical, tobacco
Description: FIG. 2e is a graphical representation showing the change in activity of Cdc2 histone kinase in transgenic tobacco cells containing a dexamethasone-inducible Cdc25 gene, progressing from the late G2 phase hormonal control point into division and following their stimulation with cytokinin. The Cdc2 histone kinase was purified using p13^suc1 beads and treated with GST-Cdc25 fusion protein that had been produced in Escherichia coli cells.
Both Cdc2 and Cdc25 enzyme activities were extracted from tobacco cells, by grinding the cells in liquid nitrogen. For Cdc2 extraction, NDE buffer containing 25 mM HEPES (pH 7.2) with protease and phosphatase inhibitors was used. For Cdc25 extraction, PDE buffer, containing 25 mM MOPS (pH 7.2), 100 mM NaCl, 10 mM DTT, 5 mM EDTA, 1mM EGTA, 1% NP-40, 50 mM NaF, 0.5 mM PMSF, 3 μg ml^−1 leupeptin, and 20 μg ml^−1 aprotinin, was used.
To measure Cdc2 activity, the phosphorylation of H1 histone was followed.
We tested this by investigating whether Cdc25 enzyme could activate Cdc2 from cells in prophase and whether the extent of activation by Cdc25 declined when activation had already occurred in vivo. […] After 12 hours, Cdc2 activity declined during anaphase and the enzyme then became unresponsive to GST-Cdc25, consistent with the anaphase decline in activity being due to proteolysis of cyclin, as observed for cyclin 1b in maize mitosis.

[5] = biological target: tyrosine phosphorylated Cdc2 from arrested Cdc25-22 mutant fission yeast, P04551
tyrosine phosphorylated Cdc2 from arrested Cdc25-22 mutant fission yeast, P04551, sequence (P04551 whole entry, looked up, change not shown, tested part not stated): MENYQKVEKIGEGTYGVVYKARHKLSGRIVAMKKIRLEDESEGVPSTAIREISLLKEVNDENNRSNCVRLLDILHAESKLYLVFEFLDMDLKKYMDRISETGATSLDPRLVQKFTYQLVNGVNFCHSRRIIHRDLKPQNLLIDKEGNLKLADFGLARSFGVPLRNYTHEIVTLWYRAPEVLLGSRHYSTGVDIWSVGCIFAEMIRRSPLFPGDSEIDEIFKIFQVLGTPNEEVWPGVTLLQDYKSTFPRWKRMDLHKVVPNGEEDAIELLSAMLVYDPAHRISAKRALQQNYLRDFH

C[C@@H]1C[C@H]2[C@@H]3CCC4=CC(=O)C=C[C@]4(C)[C@@]3(F)[C@@H](O)C[C@]2(C)[C@@]1(O)C(=O)CO [dexamethasone]
concentration at which Cdc25 mRNA and protein accumulated [1]: 0.01 to 10 µM | dexamethasone concentration that induced division ([2]; cells arrested at G2 phase hormonal control point, no cytokinin, 12 h induction): 0.01 to 10 µM | optimum concentration for induction of division ([2]; independent clones, G2-arrested cells): 0.1 µM

plant Cdc25 protein (67 kDa tobacco protein)
Cdc2 histone kinase activity after incubation with immunoprecipitated Cdc25 [3]: non-transgenic plant cells also contain a Cdc25 activity, unambiguously of plant origin, that is both present following cytokinin stimulation and capable of activating plant Cdc2

B1: GST-Cdc25 catalytic core fusion protein synthesised in Escherichia coli (protein)
chain: SSHVEDLSLPCFAVKEDSLKRITQETLLGLLDGKFKDIFDKCIIIDCRFEYEYLGGHISTAVNLNTKQAIVDAFLSKPLTHRVALVFHCEHSAHRAPHLALHFRNTDRRMNSHRYPFLYYPEVYILHGGYKSFYENHKNRCDPINYVPMNDASHVMTCTKAMNNFKRNATFMRTKSYTFGQSVLASPDVNDSPTAMHSLSTLRRF
Cdc2 histone kinase activity after treatment with GST-Cdc25 [4]: excess bacterially-synthesised GST-Cdc25 could activate plant Cdc2 enzyme that was extracted in prophase between 3 hours and 12 hours

B2: GST-Cdc25: recombinant GST-Cdc25 catalytic core fusion protein synthesised in Escherichia coli (protein)
chain: SSHVEDLSLPCFAVKEDSLKRITQETLLGLLDGKFKDIFDKCIIIDCRFEYEYLGGHISTAVNLNTKQAIVDAFLSKPLTHRVALVFHCEHSAHRAPHLALHFRNTDRRMNSHRYPFLYYPEVYILHGGYKSFYENHKNRCDPINYVPMNDASHVMTCTKAMNNFKRNATFMRTKSYTFGQSVLASPDVNDSPTAMHSLSTLRRF
modifications: left off: a dimerising Fc or GST
notes: recombinant GST-Cdc25 catalytic core fusion protein synthesised in Escherichia coli
response of Cdc2 to GST-Cdc25 in anaphase (plant Cdc2 enzyme; Cdc2 extracted after 12 hours): unresponsive | activation of plant Cdc2 enzyme (plant Cdc2 enzyme; excess bacterially-synthesised GST-Cdc25, Cdc2 extracted in prophase between 3 hours and 12 hours): could activate plant Cdc2 enzyme

B3: fission yeast Cdc25 phosphoprotein phosphatase expressed in transgenic tobacco cells (protein)
chain: MDSPLSSLSFTNTLSGKRNVLRPAARELKLMSDRNANQELDFFFPKSKHIASTLVDPFGKTCSTASPASSLAADMSMNMHIDESPALPTPRRTLFRSLSCTVETPLANKTIVSPLPESPSNDALTESYFFRQPASKYSITQDSPRVSSTIAYSFKPKASIALNTTKSEATRSSLSSSSFDSYLRPNVSRSRSSGNAPPFLRSRSSSSYSINKKKGTSGGQATRHLTYALSRTCSQSSNTTSLLESCLTDDTDDFELMSDHEDTFTMGKVADLPESSVELVEDAASIQRPNSDFGACNDNSLDDLFQASPIKPIDMLPKINKDIAFPSLKVRSPSPMAFAMQEDAEYDEQDTPVLRRTQSMFLNSTRLGLFKSQDLVCVTPKQSTKESERFISSHVEDLSLPCFAVKEDSLKRITQETLLGLLDGKFKDIFDKCIIIDCRFEYEYLGGHISTAVNLNTKQAIVDAFLSKPLTHRVALVFHCEHSAHRAPHLALHFRNTDRRMNSHRYPFLYYPEVYILHGGYKSFYENHKNRCDPINYVPMNDASHVMTCTKAMNNFKRNATFMRTKSYTFGQSVLASPDVNDSPTAMHSLSTLRRF
activation of yeast Cdc2 H1 histone kinase (phosphorylation of H1 histone) [5]: appearance of Cdc25 activity, which was detected by its activation of yeast Cdc2 Hi histone kinase

Reference: patent US20030172404A1, “Method of modifying plant characters by the targeted expression of a cell cycle control protein” (priority 1999, published 2003)
